pKi: −log10 of the molar value.

Chain of PC4 (Q6UW60 114-708): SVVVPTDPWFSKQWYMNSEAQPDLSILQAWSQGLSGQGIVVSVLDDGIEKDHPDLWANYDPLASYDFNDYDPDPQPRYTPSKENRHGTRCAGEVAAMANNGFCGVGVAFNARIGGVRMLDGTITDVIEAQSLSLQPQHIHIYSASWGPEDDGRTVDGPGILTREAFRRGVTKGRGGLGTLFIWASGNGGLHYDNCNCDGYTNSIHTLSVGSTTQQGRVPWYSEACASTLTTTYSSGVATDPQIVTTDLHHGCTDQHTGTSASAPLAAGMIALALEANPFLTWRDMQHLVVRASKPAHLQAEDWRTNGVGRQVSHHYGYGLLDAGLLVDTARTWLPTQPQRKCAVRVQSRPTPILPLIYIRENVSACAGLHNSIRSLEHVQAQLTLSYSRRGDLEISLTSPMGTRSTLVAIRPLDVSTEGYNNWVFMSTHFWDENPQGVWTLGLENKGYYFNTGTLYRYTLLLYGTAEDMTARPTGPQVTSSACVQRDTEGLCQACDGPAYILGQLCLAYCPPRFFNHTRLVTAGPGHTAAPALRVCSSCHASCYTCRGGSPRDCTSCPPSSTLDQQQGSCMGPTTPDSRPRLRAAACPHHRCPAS

This assay addresses PC4 (UniProt Q6UW60). The experiment in a line: enzyme inhibition.
The substance LLLRVKR-NH2 gave a pKi of 6.14. Consider LLRVKR-NH2, for which the pKi is 6.48.

For the substance LRVKR-NH2, the pKi is 6.20. With RVKR-NH2, the pKi was 4.68.

As usually defined, the pKi is the negative decadic logarithm of the Ki, by convention in mol/L.

(Values after patent US20110178027A1.)
